Data: the supplement of paper PMC9170038

Tested on: MS2 coat protein
Test: apparent KD of MS2 coat protein; designed switch direction (-1 OFF switch, 1 ON switch): -1; higher = weaker reporter binding
Outline: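 Normalised cluster fluorescence was curve-fitted, and each design's median over clusters is its apparent KD. Before this, SNAP-549-labelled MS2 coat protein was titrated from 0.7 or 1.5 nM, doubling to 3 µM, over RNA switches transcribed on Illumina chips by stalled E. coli RNA polymerase. Titrations had no input, 200 uM small-molecule ligand, or an oligonucleotide input, and steps lasted 0.8–1.5 h (lowest) to 10–20 min (highest).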

[1] = Eterna round: R95, input ligand: FMN 200 uM
[2] = Eterna round: R95, input ligand: microRNA oligo, concentration not stated
[3] = Eterna round: R95, input ligand: none
[4] = input ligand: microRNA oligo, concentration not stated

Row | Sequence | apparent KD of MS2 coat protein [2] [nM] | apparent KD of MS2 coat protein (input ligand: FMN 200 uM) [nM] | apparent KD of MS2 coat protein (input ligand: none) [nM] | other results
1 | GGUUGUUUUUUCCGUUCUUACAUGAGGAUCACCCAUGUUUCUUGUCGUGCUCGCGUUGCUCGUCUGUCUGUCUGUUG [salish99_TOv1_r3_073] (puzzle: Sensor v3, turn-off variant 1) | 34.3 | – | – | apparent KD of MS2 coat protein [1]: 48.5 nM; apparent KD of MS2 coat protein [3]: 56 nM
2 | GGUUUAGUAGAGGAUAUGUCACUGUCGCAGGAGACAGAAGGCUGCACAUGAGGAUCACCCAUGUCGGUAAUGAG [Eternabot (L1) Solution 89] (Eterna round: R97, puzzle: Exclusion 6) | – | 21.8 | 16.3 | –
3 | GUAAACGAAGAGGAUAUUUGAUAUCAUAGCUUCAAAGAAGGCUUCACAUGAGGAUCACCCAUGUGAUCUUCAAA [Mat - Exclusion 6 - JL Mod - D22] (Eterna round: R97, puzzle: Exclusion 6) | – | 142 | 20.7 | –
4 | GUAAACGAUCAGGAUAUAUCAAAUCAUAGCUUGAUAGAAGGGAUCACAUGAGGAUCACCCAUGUGAUCUUCUUA [Mat - Exclusion 6 - JL Mod - D36] (Eterna round: R97, puzzle: Exclusion 6) | – | 13 | 10.9 | –
5 | GUAAAGGGUGUCCUUAAAACAUGAGGAUCACCCAUGUGGACUAAGGAUAUCCAAAAUAAAGAUAAGGAGAAGGUAGUGGAAAGA [Usarqudi] (Eterna round: R96, puzzle: Exclusion NG 3) | – | 19.3 | 14 | apparent KD of MS2 coat protein [4]: 19.9 nM
6 | GUAAAGUGAGGAUAUGCUGGAGGUGUAUUCUACGUGUCGAAACAUGAGGAUCACCCAUGUAGAAGGCACGGGCG [Sozaquce] (puzzle: Exclusion 2) | 10 | – | – | –
7 | GUAACAUGCUGGUGAUCAUACAUGAGGAUCACCCAUGUAACAAGCUUUUUGUUCGUCUUAUAAGAUCACCAGCAUGU [Stov1/9-B2] (Eterna round: R97, puzzle: Sensor, turn-off variant 1) | – | 18.4 | 19.8 | –
8 | GUAAUUAAUGUAGGAUAUGCAAGGCGAACCUAAGCAGAAGGACAUGAGGAUCACCCAUGUAAUGCGGUCUGCGUACAGAUCGCU [salish99_ExNG1_r4_007] (Eterna round: R96, puzzle: Exclusion NG 1) | – | 47.8 | 24.2 | apparent KD of MS2 coat protein [4]: 13.2 nM
9 | GUAAUUAAUGUAGGAUAUGCAAGGCGAACCUAAGCAGAAGGACAUGAGGAUCACCCAUGUAUUGCGGUCUGCGUUCAGUUCGCU [salish99_ExNG1_r4_011] (Eterna round: R96, puzzle: Exclusion NG 1) | – | 9.41 | 10.2 | apparent KD of MS2 coat protein [4]: 6.39 nM
10 | GUACAGGUAGGAUAUCGAUACAAGAACAUGAGGAUCACCCAUGUGGGUCGAUUUUCGAAGCGAGAAGGACCAAAUG [Rixeatenso] (puzzle: Exclusion 5) | 132 | – | – | apparent KD of MS2 coat protein [1]: 406 nM; apparent KD of MS2 coat protein [3]: 145 nM
11 | GUAGAGUAAGGAUAUGGAGAAUAGGAUAGAAUGGUUAGAAUCUAGAAGGUACAUGAGGAUCACCCAUGUAAUGU [Excluse me!!!! 9 - Jieux - Exclusion 4] (puzzle: Exclusion 4) | 21.2 | – | – | –
12 | GUAGAGUCAGGAUAUACAAGAUCGAAAGAUCGAAGAUUUAUACAUGAGGAUCACCCAUGUAGAAGGGACUCUAC [ChP 11-04-2015 #4] (puzzle: Exclusion 2) | 12.4 | – | – | –
13 | GUAGAGUCAGGAUAUACAGAAAGUGGCUGGAAAACAGUGGCACAUGAGGAUCACCCAUGUAGAAGGGACUCUAC [ChP 11-04-2015 #1] (puzzle: Exclusion 2) | 84.3 | – | – | –
14 | GUAGAGUCAGGAUAUACGAGAUCGAUAGAUCGGCGAUCCAAACAUGAGGAUCACCCAUGUAGAAGGGACUCUAC [Mat - Exclusion 2 - Eli Mod - D4] (Eterna round: R97, puzzle: Exclusion 2) | – | 1160 | 41.6 | –
15 | GUAGGGUCAGGAUAUACUGGCUGAGGGAUGUAUUGUAGUUGGUAGAAGGGACAUGAGGAUCACCCAUGUAAGUA [JR_Exclu4_Sub057] (puzzle: Exclusion 4) | 33.2 | – | – | –
16 | GUAGUGACUCGAGGAUAUCCCGACUCCUGGUCAGGAGAAGGCGACGUCAUAGCACAUGAGGAUCACCCAUGUCUUACACAUACG [Eternabot solution 32] (Eterna round: R96, puzzle: Exclusion NG 1) | – | 25.6 | 23.9 | apparent KD of MS2 coat protein [4]: 19.5 nM
17 | GUAUGUGAGAGAGGAUAUCGUGUACAAAGUACACGAGAAGGCUUCACAUGAGGAUCACCCAUGUACCGAGGUGAAACACCUUGA [Omei Exc(NG)1 Bv9] (Eterna round: R96, puzzle: Exclusion NG 1) | – | 1870 | 423 | apparent KD of MS2 coat protein [4]: 298 nM
18 | GUAUGUUAUGAGGAUAUCGGUGAACAUACACAUCGAGAAGGCAUGACAUGAGGAUCACCCAUGUCAAGGAUGAC [Exclusion 6 - B - 18:d] (puzzle: Exclusion 6) | 24.9 | – | – | –
